# Data: paper PMC10681739, “High-throughput data and modeling reveal insights into the mechanisms of cooperative DNA-binding by transcription factor proteins”
# B1: Table S2 A row 1225 (dsDNA)
# DNA 1: GCTAGACAGGAAACAGTGAGCTTCTGTGGGCAGGAG
# DNA 2: CTCCTGCCCACAGAAGCTCACTGTTTCCTGTCTAGC
# B2: Table S2 A row 1319 (dsDNA)
# DNA 1: GAGGAACCCAAAGTAGGATGTGGTTTTGCAATTGGA
# DNA 2: TCCAATTGCAAAACCACATCCTACTTTGGGTTCCTC
# B3: Table S2 A row 123 (dsDNA)
# DNA 1: TTTATCATGAATGCAGGATGTGGGCAGACTCACAGC
# DNA 2: GCTGTGAGTCTGCCCACATCCTGCATTCATGATAAA
# B4: Table S2 A row 1604 (dsDNA)
# DNA 1: GGTGTGTTCTGGGGAGGAAGTGGGTTTTCAGGTTGT
# DNA 2: ACAACCTGAAAACCCACTTCCTCCCCAGAACACACC
# B5: Table S2 A row 1610 (dsDNA)
# DNA 1: ACACCTCAGGCAGGATGTGGTAGGGGTTGCCCCAGA
# DNA 2: TCTGGGGCAACCCCTACCACATCCTGCCTGAGGTGT
# B6: Table S2 A row 866 (dsDNA)
# DNA 1: CTGAAACAGGAAGCTGAGGGTGCGGTTGGGGGAGGA
# DNA 2: TCCTCCCCCAACCGCACCCTCAGCTTCCTGTTTCAG
# B7: Table S2 A row 638 (dsDNA)
# DNA 1: CAAGGCACCAACGGATGTGGTATCTGGTGAGGGCTT
# DNA 2: AAGCCCTCACCAGATACCACATCCGTTGGTGCCTTG
# B8: Table S2 A row 186 (dsDNA)
# DNA 1: GAAGTGTGCTCTTCCGGTACCTGCGGTTCGTTGCGC
# DNA 2: GCGCAACGAACCGCAGGTACCGGAAGAGCACACTTC
# B9: Table S2 A row 1241 (dsDNA)
# DNA 1: AAGAAAAAGGGAGGATGTGGTTTAGCAAAAGCACTG
# DNA 2: CAGTGCTTTTGCTAAACCACATCCTCCCTTTTTCTT
# B10: Table S2 A row 144 (dsDNA)
# DNA 1: GCCACACTGGCGGAAATGGTGGTTACTGTTCGAGCC
# DNA 2: GGCTCGAACAGTAACCACCATTTCCGCCAGTGTGGC
# B11: Table S2 A row 147 (dsDNA)
# DNA 1: GCAGTCAGAAGGTGCGGATGCGGTAAGGTATGCGCT
# DNA 2: AGCGCATACCTTACCGCATCCGCACCTTCTGACTGC
# B12: Table S2 A row 1336 (dsDNA)
# DNA 1: CACCTCGGGGGTTTCCGGTCCGTGGTTAGCTCCTTC
# DNA 2: GAAGGAGCTAACCACGGACCGGAAACCCCCGAGGTG
# B13: Table S2 A row 329 (dsDNA)
# DNA 1: TCCAGCTCCACAGGATGTGGTGAGTGAAGCAGCAAG
# DNA 2: CTTGCTGCTTCACTCACCACATCCTGTGGAGCTGGA
# B14: Table S2 A row 1614 (dsDNA)
# DNA 1: ACCTCAAGCCCAGGATGTGGTTTGGCCACTATTGAG
# DNA 2: CTCAATAGTGGCCAAACCACATCCTGGGCTTGAGGT
# B15: Table S2 A row 316 (dsDNA)
# DNA 1: GGCCTGTCACACACAGGAAGCGGTCACAGAAAAGCT
# DNA 2: AGCTTTTCTGTGACCGCTTCCTGTGTGTGACAGGCC
# B16: Table S2 A row 1358 (dsDNA)
# DNA 1: CAGCCTTGCCGGAAGGCAGAGTTTGTGGTCAGACCG
# DNA 2: CGGTCTGACCACAAACTCTGCCTTCCGGCAAGGCTG
# B17: Table S2 A row 391 (dsDNA)
# DNA 1: TGCAAAAAAACAGGAAACACCCAGCCGCAAATTATA
# DNA 2: TATAATTTGCGGCTGGGTGTTTCCTGTTTTTTTGCA
# B18: Table S2 A row 1086 (dsDNA)
# DNA 1: TTTCTGACACTCTCAGGATGTGGGTTTTCACACTGT
# DNA 2: ACAGTGTGAAAACCCACATCCTGAGAGTGTCAGAAA
# B19: Table S2 A row 1069 (dsDNA)
# DNA 1: AAAGCATTTCCTGCCTTGACTTAACCACAAGACAGG
# DNA 2: CCTGTCTTGTGGTTAAGTCAAGGCAGGAAATGCTTT
# B20: Table S2 A row 132 (dsDNA)
# DNA 1: CGTCTAATTGCAGGAAGTGGTTTGAAATGTTAATCT
# DNA 2: AGATTAACATTTCAAACCACTTCCTGCAATTAGACG
# B21: Table S2 A row 1419 (dsDNA)
# DNA 1: TTCACTTCCACCACTTCCTGTGGGTTTTGTTCATCC
# DNA 2: GGATGAACAAAACCCACAGGAAGTGGTGGAAGTGAA
# B22: Table S2 A row 793 (dsDNA)
# DNA 1: GTTCAGCAGGAAGTGGATGTGGATGTGTGGTTGCCA
# DNA 2: TGGCAACCACACATCCACATCCACTTCCTGCTGAAC
# B23: Table S2 A row 1719 (dsDNA)
# DNA 1: GCCACACTTCCGGCGGGGCTGCGACCGCAGAGGGGC
# DNA 2: GCCCCTCTGCGGTCGCAGCCCCGCCGGAAGTGTGGC
# B24: Table S2 A row 1132 (dsDNA)
# DNA 1: GCGCAAAGCCGGAAGGAGGGGTTTGCGGCTGGGGAG
# DNA 2: CTCCCCAGCCGCAAACCCCTCCTTCCGGCTTTGCGC
# B25: Table S2 A row 364 (dsDNA)
# DNA 1: AATGAAGGAGGGGCAGGATGTGGTCTTGGTGAATCA
# DNA 2: TGATTCACCAAGACCACATCCTGCCCCTCCTTCATT
# B26: Table S2 A row 1755 (dsDNA)
# DNA 1: CAGAGCCAAACATGCGGAAGTGGTTACGTGTACTAG
# DNA 2: CTAGTACACGTAACCACTTCCGCATGTTTGGCTCTG
# B27: Table S2 A row 601 (dsDNA)
# DNA 1: CATTCAGTAAAAGGATGTGGTTTAGAACAGATGAAA
# DNA 2: TTTCATCTGTTCTAAACCACATCCTTTTACTGAATG
# B28: Table S2 A row 1276 (dsDNA)
# DNA 1: ATTTCGCTGAAAACAGGAAACCACGAAGCCCAGATG
# DNA 2: CATCTGGGCTTCGTGGTTTCCTGTTTTCAGCGAAAT
# B29: Table S2 A row 104 (dsDNA)
# DNA 1: TGGGGACCACTGTCAGGATGTGGTCACTGGAGTCAC
# DNA 2: GTGACTCCAGTGACCACATCCTGACAGTGGTCCCCA
# B30: Table S2 A row 155 (dsDNA)
# DNA 1: GGGACAGACTCTCCAGGATGTGGTTGGATTTTGGGC
# DNA 2: GCCCAAAATCCAACCACATCCTGGAGAGTCTGTCCC
# B31: Table S2 A row 733 (dsDNA)
# DNA 1: CAGTGAACAGTTTCCTGTTCCTGTGGTTTTGACTTT
# DNA 2: AAAGTCAAAACCACAGGAACAGGAAACTGTTCACTG
# B32: Table S2 A row 719 (dsDNA)
# DNA 1: TTGCCATTCCAGGAAATGAGCTTACCACATTGACTG
# DNA 2: CAGTCAATGTGGTAAGCTCATTTCCTGGAATGGCAA
# Biological target: ETS1:RUNX1 (Homo sapiens, UniProt P14921;Q01196 full;full)
# Sequence (P14921 whole entry, chain 1 of 2): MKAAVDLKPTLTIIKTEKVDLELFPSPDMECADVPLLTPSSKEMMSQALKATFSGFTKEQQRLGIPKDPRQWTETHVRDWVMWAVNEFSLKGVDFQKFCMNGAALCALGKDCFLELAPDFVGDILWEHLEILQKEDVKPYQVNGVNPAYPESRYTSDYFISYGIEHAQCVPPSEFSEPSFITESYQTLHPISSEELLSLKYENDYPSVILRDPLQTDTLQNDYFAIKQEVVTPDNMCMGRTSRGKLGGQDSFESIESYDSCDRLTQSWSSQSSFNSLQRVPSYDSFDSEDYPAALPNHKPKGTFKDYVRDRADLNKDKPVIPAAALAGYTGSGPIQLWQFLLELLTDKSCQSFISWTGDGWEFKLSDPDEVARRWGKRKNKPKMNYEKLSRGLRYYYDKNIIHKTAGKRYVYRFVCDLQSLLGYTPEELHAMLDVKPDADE
# Sequence (Q01196 whole entry, chain 2 of 2): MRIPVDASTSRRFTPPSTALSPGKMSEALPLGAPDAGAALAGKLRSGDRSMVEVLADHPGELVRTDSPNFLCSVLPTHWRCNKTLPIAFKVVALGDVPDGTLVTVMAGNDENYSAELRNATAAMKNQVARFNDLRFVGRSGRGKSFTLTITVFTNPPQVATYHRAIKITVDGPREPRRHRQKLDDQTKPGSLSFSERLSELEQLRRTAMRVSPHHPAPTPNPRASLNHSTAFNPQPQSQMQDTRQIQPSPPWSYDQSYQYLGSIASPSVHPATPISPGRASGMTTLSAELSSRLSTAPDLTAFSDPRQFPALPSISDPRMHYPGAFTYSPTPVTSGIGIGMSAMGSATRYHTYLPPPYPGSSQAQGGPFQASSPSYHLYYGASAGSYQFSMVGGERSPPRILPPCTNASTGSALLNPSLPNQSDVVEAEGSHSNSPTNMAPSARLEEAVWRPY
# Assay: gcPBM; 1 nM ETS1 + 25 nM RUNX1, anti-ETS1 signal, normalised
# Settings: tags: N-terminal GST (pDEST15), kept (PMC6008103); copies: 1;1; label: surface-attached array probe
row,Binder,binding signal
1,B1,"5960 PBM fluorescence, median of replicate spots"
2,B2,"6860 PBM fluorescence, median of replicate spots"
3,B3,"6920 PBM fluorescence, median of replicate spots"
4,B4,"7210 PBM fluorescence, median of replicate spots"
5,B5,"6800 PBM fluorescence, median of replicate spots"
6,B6,"6680 PBM fluorescence, median of replicate spots"
7,B7,"6740 PBM fluorescence, median of replicate spots"
8,B8,"7140 PBM fluorescence, median of replicate spots"
9,B9,"5810 PBM fluorescence, median of replicate spots"
10,B10,"6760 PBM fluorescence, median of replicate spots"
11,B11,"7480 PBM fluorescence, median of replicate spots"
12,B12,"6540 PBM fluorescence, median of replicate spots"
13,B13,"6260 PBM fluorescence, median of replicate spots"
14,B14,"6100 PBM fluorescence, median of replicate spots"
15,B15,"7880 PBM fluorescence, median of replicate spots"
16,B16,"6650 PBM fluorescence, median of replicate spots"

row,Binder,binding signal
1,B17,"6020 PBM fluorescence, median of replicate spots"
2,B18,"6500 PBM fluorescence, median of replicate spots"
3,B19,"6290 PBM fluorescence, median of replicate spots"
4,B20,"7750 PBM fluorescence, median of replicate spots"
5,B21,"7320 PBM fluorescence, median of replicate spots"
6,B22,"7060 PBM fluorescence, median of replicate spots"
7,B23,"5900 PBM fluorescence, median of replicate spots"
8,B24,"7650 PBM fluorescence, median of replicate spots"
9,B25,"7160 PBM fluorescence, median of replicate spots"
10,B26,"6770 PBM fluorescence, median of replicate spots"
11,B27,"6340 PBM fluorescence, median of replicate spots"
12,B28,"7820 PBM fluorescence, median of replicate spots"
13,B29,"6580 PBM fluorescence, median of replicate spots"
14,B30,"7450 PBM fluorescence, median of replicate spots"
15,B31,"5690 PBM fluorescence, median of replicate spots"
16,B32,"6220 PBM fluorescence, median of replicate spots"
